A word on the stoichiometry N: it is a count of units in the complex or per binding partner.

Results on 8 molecules are retold here after publication PMC6239281, “Same but different: Comparison of two system-specific molecular chaperones for the maturation of formate dehydrogenases” (PLoS ONE, 2018).

The target of series [1] is Rhodobacter capsulatus FdsC (R. capsulatus). In words: SEC; size exclusion chromatography of the Ni-NTA purified chaperones alone; data not shown. On the technique in general: SEC sorts molecules by how far they enter the pores of the column.
Series [2] concerns the target Rhodobacter capsulatus FdsC-C107A (R. capsulatus). Described as above.
Series [3] has as its target Rhodobacter capsulatus FdsC-C104A (R. capsulatus). Described as above.
Series [4] concerns the target Rhodobacter capsulatus FdsC-C104A/C107A (R. capsulatus). The description is as above.
Series [5] deals with the molecule itself. The description is as above.
Series [6] deals with T1, Escherichia coli L-cysteine desulfurase IscS (E. coli, UniProt P0A6B7 1-404).
T1 construct: IscS, L-cysteine desulfurase of Escherichia coli; iscS gene cloned into NcoI/BamHI sites of pET15b (pSL209); also called E. coli IscS; source: recombinant (plasmid pSL209), expressed and purified as described previously [33, 46]
In words: SEC; 20 μM IscS mixed with 40 μM FdhD or FdsC (or double cysteine variant), 30 min at room temperature, Superdex 200 (Increase), 100 mM potassium phosphate pH 8.0 (legend: with 100 mM NaCl, 10 mM β-mercaptoethanol), 280 nm; fractions on 15% SDS-PAGE. To be noted: both partners purified.

T1 sequence (P0A6B7 whole entry): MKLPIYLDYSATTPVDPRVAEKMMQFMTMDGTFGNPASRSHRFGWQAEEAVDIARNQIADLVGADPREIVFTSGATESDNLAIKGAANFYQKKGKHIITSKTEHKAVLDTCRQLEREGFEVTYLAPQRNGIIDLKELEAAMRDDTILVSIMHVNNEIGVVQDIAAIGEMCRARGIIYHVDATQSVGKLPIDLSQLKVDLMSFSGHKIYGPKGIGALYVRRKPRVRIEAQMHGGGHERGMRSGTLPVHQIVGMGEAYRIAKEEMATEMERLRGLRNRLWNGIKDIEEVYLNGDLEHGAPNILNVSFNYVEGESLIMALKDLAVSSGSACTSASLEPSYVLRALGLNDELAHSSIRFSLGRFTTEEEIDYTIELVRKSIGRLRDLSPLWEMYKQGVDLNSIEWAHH

As for “Rhodobacter capsulatus FdsC (natural protein)”, the stoichiometry N in series [1] came out at 2.
“Rhodobacter capsulatus FdsC-C107A (natural protein)” showed a stoichiometry N in series [2] of 2.
For “Rhodobacter capsulatus FdsC-C104A (natural protein)”, the stoichiometry N in series [3] worked out at 2.
The molecule “Rhodobacter capsulatus FdsC-C104A/C107A (natural protein)” registered a stoichiometry N in series [4] of 2.

B1: Escherichia coli FdhD (natural protein, E. coli)
chain: MKKTQRKEIENVTNITGVRQIELWRRDDLQHPRLDEVAEEVPVALVYNGISHVVMMASPKDLEYFALGFSLSEGIIESPRDIFGMDVVPSCNGLEVQIELSSRRFMGLKERRRALAGRTGCGVCGVEQLNDIGKPVQPLPFTQTFDLNKLDDALRHLNDFQPVGQLTGCTHAAAWMLPSGELVGGHEDVGRHVALDKLLGRRSQEGESWQQGAVLVSSRASYEMVQKSAMCGVEILFAVSAATTLAVEVAERCNLTLVGFCKPGRATVYTHPQRLSN
notes: FdhD, FDH-specific chaperone of Escherichia coli; fdhD gene in pTrcHis (pNB10); His6-tagged FdhD has a molecular mass of 32.7 kDa; also called FdhD wild-type; FdhD WT; source: E. coli ΔfdhD strain (plasmid pNB10), purified (Ni-NTA)
Take B1: the “stoichiometry N” value in series [5] was 2. Moreover, the binding result in series [6] was “binds”.

B2: Escherichia coli FdhD-C121A (natural protein, E. coli)
chain: MKKTQRKEIENVTNITGVRQIELWRRDDLQHPRLDEVAEEVPVALVYNGISHVVMMASPKDLEYFALGFSLSEGIIESPRDIFGMDVVPSCNGLEVQIELSSRRFMGLKERRRALAGRTGAGVCGVEQLNDIGKPVQPLPFTQTFDLNKLDDALRHLNDFQPVGQLTGCTHAAAWMLPSGELVGGHEDVGRHVALDKLLGRRSQEGESWQQGAVLVSSRASYEMVQKSAMCGVEILFAVSAATTLAVEVAERCNLTLVGFCKPGRATVYTHPQRLSN
notes: FdhD of Escherichia coli with C121A; fdhD^C121A gene in pTrcHis (pNB11); Made from pNB10 by site-directed mutagenesis; also called His6-FdhD^C121A; source: E. coli ΔfdhD strain (plasmid pNB11), purified (Ni-NTA)
As to B2, the “stoichiometry N” value in series [5] worked out at 2.

B3: Escherichia coli FdhD-C124A (natural protein, E. coli)
chain: MKKTQRKEIENVTNITGVRQIELWRRDDLQHPRLDEVAEEVPVALVYNGISHVVMMASPKDLEYFALGFSLSEGIIESPRDIFGMDVVPSCNGLEVQIELSSRRFMGLKERRRALAGRTGCGVAGVEQLNDIGKPVQPLPFTQTFDLNKLDDALRHLNDFQPVGQLTGCTHAAAWMLPSGELVGGHEDVGRHVALDKLLGRRSQEGESWQQGAVLVSSRASYEMVQKSAMCGVEILFAVSAATTLAVEVAERCNLTLVGFCKPGRATVYTHPQRLSN
notes: FdhD of Escherichia coli with C124A; fdhD^C124A gene in pTrcHis (pNB12); Made from pNB10 by site-directed mutagenesis; also called His6-FdhD^C124A; source: E. coli ΔfdhD strain (plasmid pNB12), purified (Ni-NTA)
For the molecule B3, the “stoichiometry N” value in series [5] amounted to 2.

B4: Escherichia coli FdhD-C121A/C124A (natural protein, E. coli)
chain: MKKTQRKEIENVTNITGVRQIELWRRDDLQHPRLDEVAEEVPVALVYNGISHVVMMASPKDLEYFALGFSLSEGIIESPRDIFGMDVVPSCNGLEVQIELSSRRFMGLKERRRALAGRTGAGVAGVEQLNDIGKPVQPLPFTQTFDLNKLDDALRHLNDFQPVGQLTGCTHAAAWMLPSGELVGGHEDVGRHVALDKLLGRRSQEGESWQQGAVLVSSRASYEMVQKSAMCGVEILFAVSAATTLAVEVAERCNLTLVGFCKPGRATVYTHPQRLSN
notes: FdhD of Escherichia coli with C121A and C124A; fdhD^C121A/C124A gene in pTrcHis (pNB13); Made from pNB10 by site-directed mutagenesis; also called FdhD-C121/C124A; double variant; source: E. coli ΔfdhD strain (plasmid pNB13), purified (Ni-NTA)
With B4, in series [5], the “stoichiometry N” value turned out to be 2. Besides, the binding result in series [6] is reported as “binds”.
